Experimental data taken from article PMC12329532, “GAPDH heme delivery to Indoleamine 2,3-dioxygenase 1 involves their complex formation and complementary charge pairing at the protein-protein interface” (The Journal of Biological Chemistry, 2025).

What was measured:
[1] = target: FLAG-tagged IDO1 K101A expressed in HEK293T cells (human, UniProt P14902 1-403, K101A); assay: cell-based or functional assay
[2] = target: FLAG-tagged IDO1 K101D expressed in HEK293T cells (human, UniProt P14902 1-403, K101D); assay: cell-based or functional assay
[3] = target: T1, N-terminally His6-tagged human IDO1 (indoleamine 2,3-dioxygenase 1), purified apo-IDO1 (human, UniProt P14902 1-403, Alexa Fluor 488 on Cys groups (in the fluorescence polarisation assay only)); assay: cross-linking; proteins bound to each other at RT for 30 min, then 100-fold excess of DSSO for 15 min at RT; 50 mM HEPES pH 7.4, 100 mM NaCl; trypsin digest and MS-cleavable XL-MS; settings: both partners purified
T1 construct: human indoleamine 2,3-dioxygenase 1, cloned in the pHis-parallel1 vector; About 0.1 mol residual heme per mol protein; no effort was made to remove it; also called His6-IDO1; wild-type purified IDO1; source: E. coli BL21 (DE3), purified (Ni-NTA)
T1 sequence (P14902 whole entry): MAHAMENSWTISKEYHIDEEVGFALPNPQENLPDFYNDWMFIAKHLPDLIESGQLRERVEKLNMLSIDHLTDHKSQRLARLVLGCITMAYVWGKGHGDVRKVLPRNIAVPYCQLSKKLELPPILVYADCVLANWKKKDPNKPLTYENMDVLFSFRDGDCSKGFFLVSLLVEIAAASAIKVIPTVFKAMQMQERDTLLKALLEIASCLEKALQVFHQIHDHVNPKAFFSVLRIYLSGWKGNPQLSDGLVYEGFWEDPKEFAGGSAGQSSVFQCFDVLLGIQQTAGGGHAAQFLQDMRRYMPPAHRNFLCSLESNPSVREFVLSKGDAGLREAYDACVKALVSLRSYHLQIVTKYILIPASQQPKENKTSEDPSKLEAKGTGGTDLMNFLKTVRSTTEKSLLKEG

Chain of FLAG-tagged IDO1 K101A expressed in HEK293T cells (P14902 whole entry K101A): as the sequence (P14902 whole entry) above, with K101A counted along it
Chain of FLAG-tagged IDO1 K101D expressed in HEK293T cells (P14902 whole entry K101D): as the sequence (P14902 whole entry) above, with K101D counted along it

| Binder | 14C heme counts in the IDO1 immunoprecipitates, relative to wild-type IDO1 [1] | IDO1 catalytic activity of cell supernatants, relative to wild type [1] | L-Kyn buildup in the culture medium over a 5 h period, relative to wild-type IDO1 [1] | 14C heme counts in the IDO1 immunoprecipitates, relative to wild-type IDO1 [2] | IDO1 catalytic activity of cell supernatants, relative to wild type [2] | L-Kyn buildup in the culture medium over a 5 h period, relative to wild-type IDO1 [2] | binding result [3] |
| --- | --- | --- | --- | --- | --- | --- | --- |
| GAPDH of HEK293T cells (native) (enzyme) not shown | 68 % decrease | 65 % reduced | ~60 % less | 68 % decrease | 65 % reduced | ~60 % less | – |
| rabbit GAPDH protein (Sigma #G2267) (enzyme, rabbit glyceraldehyde 3-phosphate dehydrogenase; MS data were searched against P46406; The printed cross-linked residues K334 and K215 fit human GAPDH P04406; also called glyceraldehyde 3-phosphate dehydrogenase; source: bought: Sigma #G2267) not shown | – | – | – | – | – | – | binds |
